Results reported in patent publication US20240270846A1 (published 2024).
Positions count from the first letter of the chain named. In names and notes the source's numbering stands.

B1: GLS3000 L27bD (Kabat) L chain altered form, one-arm antibody with CE115HA000 (antibody, human IgG1, kappa, L234A L235A, N297A, name in Kabat numbering)
heavy: QVQLVESGGGVVQPGRSLRLSCAASGFTFSNAWMHWVRQAPGKGLEWVAQIKAKSNNYATYYAESVKGRFTISRDDSKNSLYLQMNSLKTEDTAVYYCRYVHYGAYYGVDAWGQGTTVTVSSASTKGPSVFPLAPSSKSTSGGTAALGCLVKDYFPEPVTVSWNSGALTSGVHTFPAVLQSSGLYSLSSVVTVPSSSLGTQTYICNVNHKPSNTKVDKKVEPKSCDKTHTCPPCPAPEAAGGPSVFLFPPKPKDTLMISRTPEVTCVVVDVSHEDPEVKFNWYVDGVEVHNAKTKPREEQYASTYRVVSVLTVLHQDWLNGKEYKCKVSNKALPAPIEKTISKAKGQPREPQVYTLPPSRCELTKNQVSLSCAVKGFYPSDIAVEWESNGQPENNYKTTPPVLDSDGSFFLVSKLTVDKSRWQQGNVFSCSVMHEALHNHYTQKSLSLSPDYKDDDDK
chain: EPKSSDKTHTCPPCPAPELLGGPSVFLFPPKPKDTLMISRTPEVTCVVVDVSHEDPEVKFNWYVDGVEVHNAKTKPREEQYNSTYRVVSVLTVLHQDWLNGKEYKCKVSNKALPAPIEKTISKAKGQPREPQVCTLPPSRDELTKNQVSLWCLVKGFYPSDIAVEWESNGQPENNYKTTPPVLDSDGSFFLYSKLTVDKSRWQQGNVFSCSVMHEALHNRYTQKSLSLSP
light: DIVMTQSPLSLPVTPGEPASISCRSSQSDVHSNRNTYLHWYQQKPGQAPRLLIYKVSNRFSGVPDRFSGSGSGTDFTLKISRVEAEDVGVYYCGQGTQVPYTFGQGTKLEIKRTVAAPSVFIFPPSDEQLKSGTASVVCLLNNFYPREAKVQWKVDNALQSGNSQESVTEQDSKDSTYSLSSTLTLSKADYEKHKVYACEVTHQGLSSPVTKSFNRGEC
notes: one-arm antibody
B2: GLS3000 L27bY (Kabat) L chain altered form, one-arm antibody with CE115HA000 (antibody, human IgG1, kappa, L234A L235A, N297A, name in Kabat numbering)
heavy: B1 heavy
chain: B1 chain
light: B1 light with D29Y
notes: one-arm antibody
B3: GLS3000 L27bM (Kabat) L chain altered form, one-arm antibody with CE115HA000 (antibody, human IgG1, kappa, L234A L235A, N297A, name in Kabat numbering)
heavy: B1 heavy
chain: B1 chain
light: B1 light with D29M
notes: one-arm antibody
B4: GLS3000 L27bP (Kabat) L chain altered form, one-arm antibody with CE115HA000 (antibody, human IgG1, kappa, L234A L235A, N297A, name in Kabat numbering)
heavy: B1 heavy
chain: B1 chain
light: B1 light with D29P
notes: one-arm antibody
B5: GLS3000 L27bV (Kabat) L chain altered form, one-arm antibody with CE115HA000 (antibody, human IgG1, kappa, L234A L235A, N297A, name in Kabat numbering)
heavy: B1 heavy
chain: B1 chain
light: B1 light with D29V
notes: one-arm antibody
B6: GLS3000 L27bE (Kabat) L chain altered form, one-arm antibody with CE115HA000 (antibody, human IgG1, kappa, L234A L235A, N297A, name in Kabat numbering)
heavy: B1 heavy
chain: B1 chain
light: B1 light with D29E
notes: one-arm antibody
B7: GLS3000 L27bI (Kabat) L chain altered form, one-arm antibody with CE115HA000 (antibody, human IgG1, kappa, L234A L235A, N297A, name in Kabat numbering)
heavy: B1 heavy
chain: B1 chain
light: B1 light with D29I
notes: one-arm antibody
B8: GLS3000 L33A (Kabat) L chain altered form, one-arm antibody with CE115HA000 (antibody, human IgG1, kappa, L234A L235A, N297A, name in Kabat numbering)
heavy: B1 heavy
chain: B1 chain
light: B1 light with D29L, L38A
notes: one-arm antibody
B9: GLS3000 L27bF (Kabat) L chain altered form, one-arm antibody with CE115HA000 (antibody, human IgG1, kappa, L234A L235A, N297A, name in Kabat numbering)
heavy: B1 heavy
chain: B1 chain
light: B1 light with D29F
notes: one-arm antibody
B10: GLS3000 L27bW (Kabat) L chain altered form, one-arm antibody with CE115HA000 (antibody, human IgG1, kappa, L234A L235A, N297A, name in Kabat numbering)
heavy: B1 heavy
chain: B1 chain
light: B1 light with D29W
notes: one-arm antibody
B11: GLS3000 L27bS (Kabat) L chain altered form, one-arm antibody with CE115HA000 (antibody, human IgG1, kappa, L234A L235A, N297A, name in Kabat numbering)
heavy: B1 heavy
chain: B1 chain
light: B1 light with D29S
notes: one-arm antibody

target: T1, CD3 epsilon homodimer protein (UniProt P07766 23-126); test: SPR Biacore T200, CD3 epsilon homodimer immobilized; vs unaltered GLS3000;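 further: antibody variants flowed as analyte over CD3 epsilon homodimer amine-coupled to a CM4 chip, at 25 °C in HBS-EP+ running buffer, fitted with Biacore T200 Evaluation Software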
T1 construct: construct not described; homodimer as printed; also called CD3 (CD3 epsilon)
T1 sequence (P07766 23-126): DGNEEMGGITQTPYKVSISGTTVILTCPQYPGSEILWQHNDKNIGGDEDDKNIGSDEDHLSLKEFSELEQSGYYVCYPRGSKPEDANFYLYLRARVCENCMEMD

Binder | KD ratio to GLS3000 (Affinity up)
B1 | 25.1
B2 | 22.2
B3 | 1.31
B4 | 0.96
B5 | 1.11
B6 | 26.8
B7 | 1.17
B8 | 0.82
B9 | 2.67
B10 | 23.6
B11 | 0.9
